Measured values reported in patent publication US10562947B2, “Compositions and methods for preventing or treating diseases, conditions or processes characterized by aberrant fibroblast proliferation and extracellular matrix deposition” (MOERAE MATRIX, INC., priority 2011, dated 2020).

Experiments:
Experiment in all cases: Kinase Profiling Assay
Type in all cases: biochemical
Settings in all cases: 100 μM peptide
PASK(h) = PASK(h) (Homo sapiens, UniProt Q96RG2)
How it was run: (§1)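 Read-out is kinase activity, measured twice per kinase, across 266 human kinases exposed to MK2 inhibitory peptides in a specificity screen.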

PRK2(h) = target: T1, PRK2(h) (Homo sapiens, UniProt Q16513)
T1 construct: purchased Millipore (IC50 Profiler Express service)
How it was run: as §1

MST3(h) = MST3(h) (Homo sapiens, UniProt Q9Y6E0)
How it was run: as §1

PKCα(h) = PKCα(h) (Homo sapiens, UniProt P17252)
How it was run: as §1

CDK5/p25(h) = CDK5/p25(h) (Homo sapiens, UniProt Q00535)
How it was run: as §1

Fms(h) = Fms(h) (Homo sapiens, UniProt P07333)
How it was run: as §1

TLK2(h) = TLK2(h) (Homo sapiens, UniProt Q86UE8)
How it was run: as §1

EphA4(h) = EphA4(h) (Homo sapiens, UniProt P54764)
How it was run: as §1

ROCK-II(h) = target: T2, ROCK-II(h) (Homo sapiens, UniProt O75116)
T2 construct: purchased Millipore (IC50 Profiler Express service)
How it was run: as §1

SGK3(h) = target: T3, SGK3(h) (Homo sapiens, UniProt Q96BR1)
T3 sequence (Q96BR1 1-496): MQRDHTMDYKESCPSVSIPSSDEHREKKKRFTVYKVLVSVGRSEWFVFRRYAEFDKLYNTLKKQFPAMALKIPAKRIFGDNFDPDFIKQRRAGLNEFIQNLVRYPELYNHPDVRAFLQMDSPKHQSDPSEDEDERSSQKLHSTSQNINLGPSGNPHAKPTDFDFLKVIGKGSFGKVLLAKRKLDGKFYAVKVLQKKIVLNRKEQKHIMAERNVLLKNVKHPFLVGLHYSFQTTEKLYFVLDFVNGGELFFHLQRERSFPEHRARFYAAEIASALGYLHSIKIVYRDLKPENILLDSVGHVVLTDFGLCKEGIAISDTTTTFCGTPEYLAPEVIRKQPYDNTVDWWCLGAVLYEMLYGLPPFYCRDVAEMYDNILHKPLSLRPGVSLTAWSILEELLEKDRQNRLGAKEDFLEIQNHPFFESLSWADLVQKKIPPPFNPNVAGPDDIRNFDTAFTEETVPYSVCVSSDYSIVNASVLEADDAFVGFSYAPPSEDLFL
How it was run: as §1

Itk(h) = target: T4, Itk(h) (Homo sapiens, UniProt Q08881)
T4 construct: purchased Millipore
T4 sequence (Q08881 1-620): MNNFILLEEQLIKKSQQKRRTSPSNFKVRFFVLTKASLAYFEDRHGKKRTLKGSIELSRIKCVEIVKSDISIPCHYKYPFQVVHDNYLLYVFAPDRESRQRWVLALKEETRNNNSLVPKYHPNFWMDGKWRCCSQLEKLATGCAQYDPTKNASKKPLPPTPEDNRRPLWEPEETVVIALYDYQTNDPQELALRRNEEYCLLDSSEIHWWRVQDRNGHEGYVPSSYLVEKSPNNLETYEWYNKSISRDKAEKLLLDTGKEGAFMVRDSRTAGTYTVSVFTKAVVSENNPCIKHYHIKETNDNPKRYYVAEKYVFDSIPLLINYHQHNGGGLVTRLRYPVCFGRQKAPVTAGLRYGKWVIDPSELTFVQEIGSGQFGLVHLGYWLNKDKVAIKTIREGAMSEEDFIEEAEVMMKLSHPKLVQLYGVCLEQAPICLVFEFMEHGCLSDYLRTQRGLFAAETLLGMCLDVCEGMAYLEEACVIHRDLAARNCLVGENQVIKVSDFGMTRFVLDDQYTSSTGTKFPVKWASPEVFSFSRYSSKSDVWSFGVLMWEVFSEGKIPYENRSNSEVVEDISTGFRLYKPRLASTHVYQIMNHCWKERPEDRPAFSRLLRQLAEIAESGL
How it was run: as §1

FGFR1(h) = FGFR1(h) (Homo sapiens, UniProt P11362)
How it was run: as §1

FGFR4(h) = FGFR4(h) (Homo sapiens, UniProt P22455)
How it was run: as §1

Ros(h) = target: T5, Ros(h) (Homo sapiens, UniProt P08922)
T5 construct: purchased Millipore (IC50 Profiler Express service)
How it was run: as §1

DMPK(h) = target: T6, DMPK(h) (Homo sapiens, UniProt Q09013)
T6 sequence (Q09013 1-629): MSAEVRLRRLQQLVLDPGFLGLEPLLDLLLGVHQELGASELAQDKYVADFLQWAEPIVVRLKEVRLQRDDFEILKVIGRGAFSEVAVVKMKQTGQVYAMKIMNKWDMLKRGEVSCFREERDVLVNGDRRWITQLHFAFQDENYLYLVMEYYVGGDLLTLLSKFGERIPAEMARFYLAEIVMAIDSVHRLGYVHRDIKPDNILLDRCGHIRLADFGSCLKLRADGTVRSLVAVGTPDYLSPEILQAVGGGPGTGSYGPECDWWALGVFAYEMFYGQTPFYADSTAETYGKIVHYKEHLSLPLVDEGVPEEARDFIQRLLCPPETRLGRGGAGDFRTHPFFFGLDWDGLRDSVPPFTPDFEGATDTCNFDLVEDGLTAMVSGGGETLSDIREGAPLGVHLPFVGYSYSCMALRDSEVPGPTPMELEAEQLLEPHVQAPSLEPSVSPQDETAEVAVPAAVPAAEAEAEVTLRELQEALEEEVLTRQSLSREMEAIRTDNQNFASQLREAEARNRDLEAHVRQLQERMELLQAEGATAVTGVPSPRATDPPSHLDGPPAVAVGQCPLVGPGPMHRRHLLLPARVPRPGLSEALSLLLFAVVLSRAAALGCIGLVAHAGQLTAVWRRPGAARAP
How it was run: as §1

PAK4(h) = PAK4(h) (Homo sapiens, UniProt O96013)
How it was run: as §1

FGFR1(V561M)(h) = FGFR1(V561M)(h) (Homo sapiens, UniProt P11362, V561M)
How it was run: as §1

Sequence of FGFR1(V561M)(h) (P11362 22-822 V561M): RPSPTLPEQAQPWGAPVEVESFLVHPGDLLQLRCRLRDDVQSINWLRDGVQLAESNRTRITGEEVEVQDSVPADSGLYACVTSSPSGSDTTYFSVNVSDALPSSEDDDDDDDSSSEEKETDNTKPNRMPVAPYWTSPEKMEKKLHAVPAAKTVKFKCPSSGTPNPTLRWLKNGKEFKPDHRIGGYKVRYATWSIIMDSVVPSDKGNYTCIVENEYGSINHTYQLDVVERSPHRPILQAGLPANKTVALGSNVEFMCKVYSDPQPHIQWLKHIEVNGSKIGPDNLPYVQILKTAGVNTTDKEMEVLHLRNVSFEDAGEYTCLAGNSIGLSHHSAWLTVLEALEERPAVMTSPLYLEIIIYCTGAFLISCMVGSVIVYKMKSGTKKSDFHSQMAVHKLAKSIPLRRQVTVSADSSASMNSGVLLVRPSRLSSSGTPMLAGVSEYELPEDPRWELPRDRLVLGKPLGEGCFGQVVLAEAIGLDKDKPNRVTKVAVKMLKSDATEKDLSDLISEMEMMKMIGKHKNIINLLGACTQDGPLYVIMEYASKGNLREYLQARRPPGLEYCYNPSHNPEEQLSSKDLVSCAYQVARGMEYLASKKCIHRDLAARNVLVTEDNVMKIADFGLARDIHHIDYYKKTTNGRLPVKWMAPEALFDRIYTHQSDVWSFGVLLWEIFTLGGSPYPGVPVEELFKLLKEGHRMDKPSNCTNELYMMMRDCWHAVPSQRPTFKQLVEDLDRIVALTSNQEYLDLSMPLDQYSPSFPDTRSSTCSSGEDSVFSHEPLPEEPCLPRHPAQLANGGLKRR
T1 sequence (Q16513 whole entry): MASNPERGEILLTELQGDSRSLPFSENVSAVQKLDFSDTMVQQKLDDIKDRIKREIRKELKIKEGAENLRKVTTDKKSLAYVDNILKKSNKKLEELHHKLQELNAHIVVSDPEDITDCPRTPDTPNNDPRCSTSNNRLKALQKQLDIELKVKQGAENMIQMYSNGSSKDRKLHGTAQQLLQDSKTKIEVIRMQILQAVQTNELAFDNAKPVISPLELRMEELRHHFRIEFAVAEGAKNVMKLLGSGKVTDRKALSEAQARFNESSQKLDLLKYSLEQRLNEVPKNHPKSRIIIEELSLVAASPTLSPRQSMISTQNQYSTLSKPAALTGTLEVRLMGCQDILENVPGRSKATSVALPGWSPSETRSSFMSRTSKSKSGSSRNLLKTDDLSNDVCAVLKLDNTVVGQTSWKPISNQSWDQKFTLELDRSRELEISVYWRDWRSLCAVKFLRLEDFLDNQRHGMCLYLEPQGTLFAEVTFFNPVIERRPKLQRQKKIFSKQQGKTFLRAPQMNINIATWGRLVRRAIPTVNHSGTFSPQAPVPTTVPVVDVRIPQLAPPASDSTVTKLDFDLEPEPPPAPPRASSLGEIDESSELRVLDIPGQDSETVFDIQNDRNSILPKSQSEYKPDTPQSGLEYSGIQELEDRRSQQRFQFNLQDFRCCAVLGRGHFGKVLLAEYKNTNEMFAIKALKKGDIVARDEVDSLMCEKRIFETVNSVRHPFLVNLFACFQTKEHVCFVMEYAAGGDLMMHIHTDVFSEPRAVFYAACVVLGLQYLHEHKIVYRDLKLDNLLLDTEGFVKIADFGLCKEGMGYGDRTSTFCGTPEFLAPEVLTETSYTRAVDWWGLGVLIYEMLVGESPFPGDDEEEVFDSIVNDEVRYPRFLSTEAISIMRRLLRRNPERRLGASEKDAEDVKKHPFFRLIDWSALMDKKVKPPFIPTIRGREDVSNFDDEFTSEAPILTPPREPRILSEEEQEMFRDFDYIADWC
T2 sequence (O75116 whole entry): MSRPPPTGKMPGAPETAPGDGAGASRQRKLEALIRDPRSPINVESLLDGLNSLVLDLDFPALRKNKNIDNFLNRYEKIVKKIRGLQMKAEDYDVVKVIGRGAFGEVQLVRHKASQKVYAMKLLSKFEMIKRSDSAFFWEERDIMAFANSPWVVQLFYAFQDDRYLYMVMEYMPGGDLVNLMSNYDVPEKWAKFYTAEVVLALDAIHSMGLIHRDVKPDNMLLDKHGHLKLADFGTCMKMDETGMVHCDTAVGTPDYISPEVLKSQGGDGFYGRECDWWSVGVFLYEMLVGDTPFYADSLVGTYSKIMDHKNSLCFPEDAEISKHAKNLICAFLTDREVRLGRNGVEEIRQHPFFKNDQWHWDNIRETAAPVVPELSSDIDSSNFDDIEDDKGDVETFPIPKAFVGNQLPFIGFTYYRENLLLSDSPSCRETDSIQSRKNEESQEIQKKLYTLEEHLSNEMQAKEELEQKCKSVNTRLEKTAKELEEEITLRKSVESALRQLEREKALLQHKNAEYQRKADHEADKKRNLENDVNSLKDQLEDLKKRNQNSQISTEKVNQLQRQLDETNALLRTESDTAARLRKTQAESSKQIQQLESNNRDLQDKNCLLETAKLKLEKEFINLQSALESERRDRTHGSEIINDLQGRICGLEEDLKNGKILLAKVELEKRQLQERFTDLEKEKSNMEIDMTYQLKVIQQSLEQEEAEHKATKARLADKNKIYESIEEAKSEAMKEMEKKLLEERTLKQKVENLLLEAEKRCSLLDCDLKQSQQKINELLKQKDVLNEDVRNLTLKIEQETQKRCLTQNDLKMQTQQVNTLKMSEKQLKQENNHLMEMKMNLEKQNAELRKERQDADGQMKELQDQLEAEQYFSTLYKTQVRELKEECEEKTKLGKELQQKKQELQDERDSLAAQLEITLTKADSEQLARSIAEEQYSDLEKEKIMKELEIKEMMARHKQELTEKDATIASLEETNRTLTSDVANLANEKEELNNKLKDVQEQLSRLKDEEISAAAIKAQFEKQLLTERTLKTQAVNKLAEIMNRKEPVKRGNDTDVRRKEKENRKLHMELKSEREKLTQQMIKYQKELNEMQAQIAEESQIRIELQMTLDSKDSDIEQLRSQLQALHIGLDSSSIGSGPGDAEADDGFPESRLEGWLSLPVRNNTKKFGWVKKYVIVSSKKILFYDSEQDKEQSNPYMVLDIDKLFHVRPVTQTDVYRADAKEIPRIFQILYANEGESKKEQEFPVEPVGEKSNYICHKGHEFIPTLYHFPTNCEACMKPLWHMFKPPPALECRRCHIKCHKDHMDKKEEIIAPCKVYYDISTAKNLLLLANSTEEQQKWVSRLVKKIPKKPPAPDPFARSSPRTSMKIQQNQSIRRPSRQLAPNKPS
Sequence of TLK2(h) (Q86UE8 whole entry): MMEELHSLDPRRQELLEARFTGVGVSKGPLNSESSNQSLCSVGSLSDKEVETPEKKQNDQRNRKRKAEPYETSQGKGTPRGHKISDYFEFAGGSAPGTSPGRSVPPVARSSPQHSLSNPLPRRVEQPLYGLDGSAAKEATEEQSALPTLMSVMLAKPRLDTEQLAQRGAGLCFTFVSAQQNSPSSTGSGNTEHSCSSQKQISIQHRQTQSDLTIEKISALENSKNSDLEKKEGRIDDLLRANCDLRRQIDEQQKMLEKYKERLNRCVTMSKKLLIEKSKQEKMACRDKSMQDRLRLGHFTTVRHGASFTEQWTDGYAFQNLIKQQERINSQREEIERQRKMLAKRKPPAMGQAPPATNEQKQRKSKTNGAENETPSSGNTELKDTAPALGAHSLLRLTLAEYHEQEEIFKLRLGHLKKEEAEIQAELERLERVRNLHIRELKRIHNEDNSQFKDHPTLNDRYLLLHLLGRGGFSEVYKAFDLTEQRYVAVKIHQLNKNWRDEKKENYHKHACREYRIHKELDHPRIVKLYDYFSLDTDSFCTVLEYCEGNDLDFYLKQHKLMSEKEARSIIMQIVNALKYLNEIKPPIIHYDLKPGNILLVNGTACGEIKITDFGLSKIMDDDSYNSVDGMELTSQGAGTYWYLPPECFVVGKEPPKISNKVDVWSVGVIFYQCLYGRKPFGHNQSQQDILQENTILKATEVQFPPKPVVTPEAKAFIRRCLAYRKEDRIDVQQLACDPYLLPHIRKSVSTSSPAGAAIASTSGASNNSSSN
Sequence of CDK5/p25(h) (Q00535 whole entry): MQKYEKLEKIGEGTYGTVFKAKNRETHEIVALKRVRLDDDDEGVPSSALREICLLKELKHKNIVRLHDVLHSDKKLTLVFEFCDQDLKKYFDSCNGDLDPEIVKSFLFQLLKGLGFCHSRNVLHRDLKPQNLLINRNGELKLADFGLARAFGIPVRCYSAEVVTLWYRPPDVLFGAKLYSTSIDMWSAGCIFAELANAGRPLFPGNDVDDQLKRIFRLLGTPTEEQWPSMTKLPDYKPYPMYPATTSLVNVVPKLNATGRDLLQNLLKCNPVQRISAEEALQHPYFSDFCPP
Sequence of CDK5/p25(h) (Q15078 99-307 partner limits assumed): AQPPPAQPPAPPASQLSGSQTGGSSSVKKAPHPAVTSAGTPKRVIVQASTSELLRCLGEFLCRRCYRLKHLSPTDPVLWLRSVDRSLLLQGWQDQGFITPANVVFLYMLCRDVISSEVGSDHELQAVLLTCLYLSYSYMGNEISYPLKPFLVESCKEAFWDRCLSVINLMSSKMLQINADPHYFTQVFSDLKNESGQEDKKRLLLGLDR
Sequence of MST3(h) (Q9Y6E0 whole entry): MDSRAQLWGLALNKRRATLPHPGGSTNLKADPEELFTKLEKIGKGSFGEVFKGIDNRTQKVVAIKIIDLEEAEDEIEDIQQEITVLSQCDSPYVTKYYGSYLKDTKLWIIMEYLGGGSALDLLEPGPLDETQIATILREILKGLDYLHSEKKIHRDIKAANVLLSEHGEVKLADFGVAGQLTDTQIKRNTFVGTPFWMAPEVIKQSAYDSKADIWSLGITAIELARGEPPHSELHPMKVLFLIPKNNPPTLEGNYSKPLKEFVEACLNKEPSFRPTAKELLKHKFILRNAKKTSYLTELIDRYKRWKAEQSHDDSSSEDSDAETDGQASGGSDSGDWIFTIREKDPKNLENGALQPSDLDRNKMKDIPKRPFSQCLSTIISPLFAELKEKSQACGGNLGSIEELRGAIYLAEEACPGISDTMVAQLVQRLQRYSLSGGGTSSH
Sequence of FGFR1(h) (P11362 22-822): as the sequence (P11362 22-822 V561M) above, with M540V counted along it

Sequence	PASK(h) % activity (PASK(h)) [%]	PRK2(h) % activity (PRK2(h)) [%]	MST3(h) % activity (MST3(h)) [%]	PKCα(h) % activity (PKCα(h)) [%]	CDK5/p25(h) % activity (CDK5/p25(h)) [%]	Fms(h) % activity (Fms(h)) [%]	TLK2(h) % activity (TLK2(h)) [%]	EphA4(h) % activity (EphA4(h)) [%]	ROCK-II(h) % activity (ROCK-II(h)) [%]	SGK3(h) % activity (SGK3(h)) [%]	Itk(h) % activity (Itk(h)) [%]	FGFR1(h) % activity (FGFR1(h)) [%]	FGFR4(h) % activity (FGFR4(h)) [%]	Ros(h) % activity (Ros(h)) [%]	DMPK(h) % activity (DMPK(h)) [%]	PAK4(h) % activity (PAK4(h)) [%]	FGFR1(V561M)(h) % activity (FGFR1(V561M)(h)) [%]
HRRIKAWLKKIKALARQLGVAA (Mammalian) [MMI-0500]	9	7	4	3	66	14	133	48	2	−3	7	18	3	150	12	86	
KAFAKLAARLYRKALARQLGVAA [MMI-0400]	28	27	36	86	92	37	151	65	77	8	63	59	19	99	54	89	74
FAKLAARLYRKALARQLGVAA [MMI-0300]	29	33	45	89	89	45		88	74	10	77	55	28	95	59	94	74
YARAAARQARAKALNRQLGVA (Mammalian) [MMI-0200]	60	74	95	100	97	92	129	127	85	58	98	97	75	86	66	98	72
